# Data: paper PMC13598245, “A complex of MAST1 and 14-3-3η regulates Tau phosphorylation in the developing cortex” (Proceedings of the National Academy of Sciences of the …, 2026)
# B1: GST-tagged 14-3-3η (coexpressed with MAST1^DK) (natural protein, UniProt Q04917 1-246, looked up)
# chain: MGDREQLLQRARLAEQAERYDDMASAMKAVTELNEPLSNEDRNLLSVAYKNVVGARRSSWRVISSIEQKTMADGNEKKLEKVKAYREKIEKELETVCNDVLSLLDKFLIKNCNDFQYESKVFYLKMKGDYYRYLAEVASGEKKNSVVEASEAAYKEAFEISKEQMQPTHPIRLGLALNFSVFYYEIQNAPEQACLLAKQAFDDAIAELDTLNEDSYKDSTLIMQLLRDNLTLWTSDQQDEEAGEGN
# notes: 14-3-3 protein eta
# B2: 14-3-3η (purified, recombinant) (natural protein, UniProt Q04917 1-246, looked up)
# chain: B1 chain
# notes: 14-3-3 protein eta; also called purified 14-3-3η; source: purified recombinant
# Biological target: the molecule itself
# Test: cross-linking + other: mass photometry; complex stabilised by glutaraldehyde cross-linking, then mass photometry (25 to 50 nM, 50 mM HEPES pH 7.4, 150 mM NaCl, 1 mM TCEP)
row,Protein,stoichiometry N
1,B1,2
2,B2,2
